Measured values taken from article PMC11203719, “Mts1 (S100A4) and Its Peptide Demonstrate Cytotoxic Activity in Complex with Tag7 (PGLYRP1) Peptide” (International Journal of Molecular Sciences, 2024).

Molecular target: T1, Tag7 (PGLYRP1) protein, recombinant (UniProt O88593)
T1 sequence (O88593 1-182, species assumed, looked up): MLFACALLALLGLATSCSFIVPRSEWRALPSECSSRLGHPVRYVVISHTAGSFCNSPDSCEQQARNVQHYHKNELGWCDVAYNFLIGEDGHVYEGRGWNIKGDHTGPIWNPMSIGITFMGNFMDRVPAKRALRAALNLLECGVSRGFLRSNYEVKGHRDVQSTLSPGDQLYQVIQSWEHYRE
Experiment: MST; Tag7 labelled with Alexa Fluor 488 (200 nM), preincubated 20 min in the dark at room temperature with 16 concentrations of M7; Monolith NT.115, 10% IR laser power

Kd: 2.96 nM
B1: M7 peptide of Mts1 (S100A4) (peptide)
peptide: ELPSFLGKRTDEAAFQK
